Experimental data reported in patent publication US20200155655.

Biological target: Vps34 (vacuolar protein sorting 34), endogenous in MEF cell lysate (UniProt Q6PF93)
Sequence (Q6PF93 whole entry): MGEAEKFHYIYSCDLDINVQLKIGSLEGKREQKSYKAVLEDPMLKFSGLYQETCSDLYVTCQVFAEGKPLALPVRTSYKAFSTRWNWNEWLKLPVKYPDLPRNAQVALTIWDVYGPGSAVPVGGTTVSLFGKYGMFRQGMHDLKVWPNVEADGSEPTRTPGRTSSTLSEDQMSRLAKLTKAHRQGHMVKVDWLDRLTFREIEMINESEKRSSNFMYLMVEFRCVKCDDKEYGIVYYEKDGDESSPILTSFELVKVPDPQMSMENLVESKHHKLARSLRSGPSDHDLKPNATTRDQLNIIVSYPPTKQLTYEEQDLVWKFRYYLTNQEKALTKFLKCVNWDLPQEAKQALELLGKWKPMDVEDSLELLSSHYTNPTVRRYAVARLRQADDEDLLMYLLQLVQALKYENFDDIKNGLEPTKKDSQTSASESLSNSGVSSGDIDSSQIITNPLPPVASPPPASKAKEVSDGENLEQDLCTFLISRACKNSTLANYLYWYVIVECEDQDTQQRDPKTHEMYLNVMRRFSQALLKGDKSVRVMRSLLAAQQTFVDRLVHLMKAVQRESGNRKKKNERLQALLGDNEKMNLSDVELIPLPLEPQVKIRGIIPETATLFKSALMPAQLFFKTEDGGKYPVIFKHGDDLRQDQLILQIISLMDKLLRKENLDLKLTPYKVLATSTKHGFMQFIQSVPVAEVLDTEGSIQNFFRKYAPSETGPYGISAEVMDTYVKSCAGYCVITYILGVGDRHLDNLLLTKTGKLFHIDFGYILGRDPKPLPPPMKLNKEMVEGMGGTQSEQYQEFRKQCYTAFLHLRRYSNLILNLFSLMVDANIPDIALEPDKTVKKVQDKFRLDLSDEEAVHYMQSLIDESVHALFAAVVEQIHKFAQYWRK

Sequence of purified GST-LRS protein (chain, as listed by the source): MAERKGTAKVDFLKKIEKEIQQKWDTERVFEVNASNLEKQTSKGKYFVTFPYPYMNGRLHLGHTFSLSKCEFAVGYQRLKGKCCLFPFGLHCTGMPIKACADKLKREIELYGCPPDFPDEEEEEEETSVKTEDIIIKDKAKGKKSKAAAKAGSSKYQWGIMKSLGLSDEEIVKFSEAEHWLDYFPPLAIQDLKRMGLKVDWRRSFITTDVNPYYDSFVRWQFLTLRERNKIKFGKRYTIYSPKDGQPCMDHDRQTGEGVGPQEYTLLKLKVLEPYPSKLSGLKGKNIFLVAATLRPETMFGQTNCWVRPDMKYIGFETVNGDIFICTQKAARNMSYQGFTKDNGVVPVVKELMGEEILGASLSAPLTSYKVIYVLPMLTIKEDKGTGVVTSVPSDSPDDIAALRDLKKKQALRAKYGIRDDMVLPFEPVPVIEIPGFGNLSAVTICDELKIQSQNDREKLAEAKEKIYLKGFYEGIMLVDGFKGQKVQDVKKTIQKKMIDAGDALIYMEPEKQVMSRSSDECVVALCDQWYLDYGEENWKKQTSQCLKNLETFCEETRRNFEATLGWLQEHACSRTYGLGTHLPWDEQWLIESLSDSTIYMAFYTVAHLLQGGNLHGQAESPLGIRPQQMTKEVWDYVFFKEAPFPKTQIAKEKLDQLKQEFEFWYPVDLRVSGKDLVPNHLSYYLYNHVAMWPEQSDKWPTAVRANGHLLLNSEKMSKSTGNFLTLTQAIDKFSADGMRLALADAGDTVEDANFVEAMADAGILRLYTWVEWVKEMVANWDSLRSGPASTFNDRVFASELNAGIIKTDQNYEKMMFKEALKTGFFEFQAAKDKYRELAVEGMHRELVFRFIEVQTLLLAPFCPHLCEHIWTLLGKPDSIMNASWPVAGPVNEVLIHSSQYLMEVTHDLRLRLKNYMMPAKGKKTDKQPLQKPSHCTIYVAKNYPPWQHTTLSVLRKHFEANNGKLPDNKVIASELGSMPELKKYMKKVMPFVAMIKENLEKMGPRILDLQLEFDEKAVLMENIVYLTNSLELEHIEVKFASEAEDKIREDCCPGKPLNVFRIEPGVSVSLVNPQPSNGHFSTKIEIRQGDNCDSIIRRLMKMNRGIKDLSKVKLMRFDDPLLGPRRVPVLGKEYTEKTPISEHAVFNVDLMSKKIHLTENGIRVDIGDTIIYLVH
Sequence of GST-LRS mutation (F50A/Y52A) (chain, as listed by the source F50A Y52A): as the sequence (chain, as listed by the source) above, with F50A, Y52A counted along it

GST-LRS mutation (F50A/Y52A)
activity of Vps34 (in vitro Vps34 lipid kinase assay): LRS mutation (F50A/Y52A) did not induce the activation of Vps34, regardless of the presence or absence of leucine stimulation

purified GST-LRS protein
activity of Vps34 (in vitro Vps34 lipid kinase assay): the activity of Vps34 was increased by about 3 times compared to the GST control | activity of Vps34 (in vitro Vps34 lipid kinase assay), with leucine: the activity was further increased by leucine stimulation
